Test results from patent US20140329742A1 (GlaxoSmithKline, published 2014).
Where no end group is shown, it is not given here.

T1: human Neuropeptide Y receptor type 2 (human, UniProt P49146 1-381)
T1 sequence (looked up): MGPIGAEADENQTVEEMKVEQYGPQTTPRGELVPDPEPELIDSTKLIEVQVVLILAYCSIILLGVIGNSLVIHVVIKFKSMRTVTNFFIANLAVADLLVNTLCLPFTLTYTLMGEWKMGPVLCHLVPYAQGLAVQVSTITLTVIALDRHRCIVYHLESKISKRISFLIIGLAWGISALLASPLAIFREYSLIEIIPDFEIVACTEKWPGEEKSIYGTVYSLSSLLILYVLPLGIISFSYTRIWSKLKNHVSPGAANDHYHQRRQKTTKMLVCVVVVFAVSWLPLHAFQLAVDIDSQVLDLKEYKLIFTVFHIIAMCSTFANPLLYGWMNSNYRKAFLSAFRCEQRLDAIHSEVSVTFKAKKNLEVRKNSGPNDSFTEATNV


biological target: T1, human Neuropeptide Y receptor type 2; assay: cell-based or functional assay

hNPY Y2 pEC50 (melanophore assay)	Binder
8.9	PKPVAPGCDASPAELNRQYSDLRNYWNLVTRQRY-NH2 [Peptide 15]
9.3	IKPPYPGCDASPEEQNKYYASLRAYWNLVTRQRY-NH2 [Peptide 8]
7.9	PKPEAPGCDASPEEWNRYYASLRKYLNWVTRQNY-NH2 [Peptide 1]
9.2	PKPEAPGEDASPKEWNRYYASLRKYLNWVTRQRY-NH2 [Peptide 3]
8.7	PKPEAPLSKQLEEEAVRYYASLRHYLNLVTRQRY-NH2 [Peptide 21]
8.6	IKPEAPLSKQLEEEAVRYYASLRHYLNLVTRQRY-NH2 [Peptide 2]
8.2	PKPEAPGCDASPEEWNRYYASLRKYLNWVTRQHY-NH2 [Peptide 14]

biological target: T1, human Neuropeptide Y receptor type 2; assay: cell-based or functional assay; remark: another data set of the same source

hNPY Y2 pEC50 (melanophore assay)	Binder
9.8	PKPEAPGKDASPEELNRYYASLRKYLNWVTRQRY-NH2 [Example 31]
9.8	PKPEAPGKDASPEELNRYYASLRKYLNWLTRQRY-NH2 [Example 2]
9.6	PKPEHPGKDASPEEWNRYYASLRKYLNWVTRQRY-NH2 [Example 25]
